B1: herpes simplex virus 1 (HSV-1) US3 protein kinase (protein)
chain: MACRKFCRVYGGQGRRKEEAVPPETKPSRVFPHGPFYTPAEDACLDSPPPETPKPSHTTPPSEAERLCHLQEILAQMYGNQDYPIEDDPSADAADDVDEDAPDDVAYPEEYAEELFLPGDATGPLIGANDHIPPPCGASPPGIRRRSRDEIGATGFTAEELDAMDREAARAISRGGKPPSTMAKLVTGMGFTIHGALTPGSEGCVFDSSHPDYPQRVIVKAGWYTSTSHEARLLRRLDHPAILPLLDLHVVSGVTCLVLPKYQADLYTYLSRRLNPLGRPQIAAVSRQLLSAVDYIHRQGIIHRDIKTENIFINTPEDICLGDFGAACFVQGSRSSPFPYGIAGTIDTNAPEVLAGDPYTTTVDIWSAGLVIFETAVHNASLFSAPRGPKRGPCDSQITRIIRQAQVHVDEFSPHPESRLTSRYRSRAAGNNRPPYTRPAWTRYYKMDIDVEYLVCKALTFDGALRPSAAELLCLPLFQQK

Columns and labels:
[1] = target: mouse BAD (murine BAD pro-apoptotic polypeptide) (mouse) (UniProt Q61337); test: cell-based or functional assay
[2] = target: T1, HSV-1 UL34 protein, P10218
T1 chain: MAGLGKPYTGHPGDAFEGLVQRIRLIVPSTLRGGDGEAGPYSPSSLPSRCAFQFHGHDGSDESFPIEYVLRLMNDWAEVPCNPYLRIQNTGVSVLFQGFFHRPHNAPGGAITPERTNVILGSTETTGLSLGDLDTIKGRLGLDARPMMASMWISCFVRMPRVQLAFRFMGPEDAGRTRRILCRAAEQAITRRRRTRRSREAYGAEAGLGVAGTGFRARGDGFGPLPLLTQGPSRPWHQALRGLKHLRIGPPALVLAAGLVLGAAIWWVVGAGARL

[3] = target: T2, mouse BAD (murine BAD pro-apoptotic polypeptide)
T2 chain: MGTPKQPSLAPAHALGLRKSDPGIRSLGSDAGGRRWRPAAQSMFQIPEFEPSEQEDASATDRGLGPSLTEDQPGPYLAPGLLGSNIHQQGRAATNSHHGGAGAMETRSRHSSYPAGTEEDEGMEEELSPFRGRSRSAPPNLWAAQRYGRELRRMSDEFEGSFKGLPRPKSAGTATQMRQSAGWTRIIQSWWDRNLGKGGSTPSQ

Row | Molecule | DEVDase activity (fold increase over mock-infected cells) (fold increase) [1] | processing of UL34 protein (apparent Mr 30,000 against 33,000; 32P labelling and UL34 immunoblot) [2] | DNA fragmentation (agarose gel) [3] | cleavage of poly(ADP-ribose) polymerase (Mr 85,000 PARP cleavage product, immunoblot) [3] | electrophoretic mobility and total amount of BAD (immunoblot with anti-BAD antibody) [3] | levels of BAD phosphorylated at ser136, ser155 and ser112 (immunoblot with phospho-specific antibodies) [3]
1 | herpes simplex virus 1 (HSV-1) US3 protein kinase (from UniProt P04413 1-481) (enzyme) | < 2 |  |  |  |  | 
2 | B1 |  | the fully processed UL34 protein was present in cells infected with HSV-1(F) but not cells infected with 120FR or R7041 | DNA fragmentation was not observed in extracts of Bac-Bad treated cells that had been previously exposed to Bac-US3 | readily detected in mock- or in Bac-WT-infected cells that had been exposed to Bac-Bad, but not in Bac-US3 infected cells that had been exposed to Bac-Bad | migrated more slowly and was significantly reduced in amount relative to those detected in lysates of cells exposed to BAC-WT or mock-infected prior to exposure to Bac-BAD | The levels of BAD phosphorylated at ser136, ser155, and ser112 present in cells mock infected were similar to those present in cells infected with Bac-WT or Bac-US3
